In patent US20240034757A1 (OXFORD UNIVERSITY INNOVATION, published 2024):
Substitutions are numbered along the chain they refer to. Numbers in names are those of the source.

Tests used:
Assay in all cases: BLI
CCL27_HUMAN = target: T1, CCL27_HUMAN (human, UniProt Q9Y4X3 25-112)
T1 sequence: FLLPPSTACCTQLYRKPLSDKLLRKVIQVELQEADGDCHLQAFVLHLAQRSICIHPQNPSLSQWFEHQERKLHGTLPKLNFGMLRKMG

CCL23_HUMAN = target: T2, CCL23_HUMAN (human, UniProt P55773 22-120)
T2 sequence: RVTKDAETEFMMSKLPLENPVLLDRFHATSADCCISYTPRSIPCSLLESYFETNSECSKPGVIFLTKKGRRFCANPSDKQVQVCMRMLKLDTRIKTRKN

CCL18_HUMAN = target: T3, CCL18_HUMAN (human, UniProt P55774 21-89)
T3 sequence: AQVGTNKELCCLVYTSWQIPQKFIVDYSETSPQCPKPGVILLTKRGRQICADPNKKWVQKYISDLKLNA

CCL4_HUMAN = target: T4, CCL4_HUMAN (human, UniProt P13236 24-92)
T4 sequence: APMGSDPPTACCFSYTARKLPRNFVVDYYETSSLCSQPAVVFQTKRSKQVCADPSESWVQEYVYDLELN

CCL5_HUMAN = target: T5, CCL5_HUMAN (human, UniProt P13501 24-91)
T5 sequence: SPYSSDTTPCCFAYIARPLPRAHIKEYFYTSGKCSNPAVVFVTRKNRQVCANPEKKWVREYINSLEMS

CCL7_HUMAN = CCL7_HUMAN (human, UniProt P80098 24-99)
CCL24_HUMAN = target: T6, CCL24_HUMAN (human, UniProt O00175 27-104)
T6 sequence: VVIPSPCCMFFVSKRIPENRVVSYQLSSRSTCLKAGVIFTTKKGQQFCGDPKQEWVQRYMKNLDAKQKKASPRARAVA

CCL3L1_HUMAN = target: T7, CCL3L1_HUMAN (human, UniProt P16619 24-93)
T7 sequence: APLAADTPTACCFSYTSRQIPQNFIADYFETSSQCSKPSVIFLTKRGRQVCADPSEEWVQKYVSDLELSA

CCL4L1_HUMAN = target: T8, CCL4L1_HUMAN (human, UniProt Q8NHW4 24-92)
T8 sequence: T4 sequence with S47G

CCL13_HUMAN = CCL13_HUMAN (human, UniProt Q99616 24-98)
CCL20_HUMAN = CCL20_HUMAN (human, UniProt P78556 27-96)
CCL21_HUMAN = target: T9, CCL21_HUMAN (human, UniProt O00585 24-134)
T9 sequence: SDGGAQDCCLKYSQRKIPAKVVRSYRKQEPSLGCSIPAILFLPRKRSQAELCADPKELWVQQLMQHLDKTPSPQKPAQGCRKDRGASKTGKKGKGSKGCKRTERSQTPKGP

CCL22_HUMAN = target: T10, CCL22_HUMAN (human, UniProt O00626 25-93)
T10 sequence: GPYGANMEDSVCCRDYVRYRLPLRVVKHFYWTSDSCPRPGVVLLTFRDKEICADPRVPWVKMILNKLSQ

CCL19_HUMAN = target: T11, CCL19_HUMAN (human, UniProt Q99731 22-98)
T11 sequence: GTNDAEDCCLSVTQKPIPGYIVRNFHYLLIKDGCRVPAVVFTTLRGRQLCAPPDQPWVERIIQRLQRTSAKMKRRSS

CCL14_HUMAN = target: T12, CCL14_HUMAN (human, UniProt Q16627 22-93)
T12 sequence: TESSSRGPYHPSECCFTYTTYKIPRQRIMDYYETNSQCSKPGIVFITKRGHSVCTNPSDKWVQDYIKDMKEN

CCL1_HUMAN = target: T13, CCL1_HUMAN (human, UniProt P22362 24-96)
T13 sequence: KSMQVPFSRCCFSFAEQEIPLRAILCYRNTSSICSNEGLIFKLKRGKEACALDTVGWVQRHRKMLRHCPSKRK

CCL16_HUMAN = target: T14, CCL16_HUMAN (human, UniProt O15467 24-120)
T14 sequence: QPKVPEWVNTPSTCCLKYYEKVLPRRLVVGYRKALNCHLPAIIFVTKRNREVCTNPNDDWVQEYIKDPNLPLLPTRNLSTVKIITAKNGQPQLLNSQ

CCL3_HUMAN = target: T15, CCL3_HUMAN (human, UniProt P10147 24-92)
T15 sequence: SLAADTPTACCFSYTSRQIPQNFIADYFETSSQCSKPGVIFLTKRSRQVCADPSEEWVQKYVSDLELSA

CCL8_HUMAN = target: T16, CCL8_HUMAN (human, UniProt P80075 24-99)
T16 sequence (looked up): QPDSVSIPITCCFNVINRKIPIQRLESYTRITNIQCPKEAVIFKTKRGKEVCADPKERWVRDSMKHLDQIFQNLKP

CCL11_HUMAN = CCL11_HUMAN (human, UniProt P51671 24-97)
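Also: biolayer interferometry of evasin binding to chemokines, poorly fitted curves (R² under 0.9) discarded, every experiment run three or more times.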

Chain of CCL7_HUMAN (P80098 24-99 limits assumed): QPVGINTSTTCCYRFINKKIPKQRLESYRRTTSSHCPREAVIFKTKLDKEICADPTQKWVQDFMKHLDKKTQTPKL
Chain of CCL13_HUMAN (Q99616 24-98 limits assumed): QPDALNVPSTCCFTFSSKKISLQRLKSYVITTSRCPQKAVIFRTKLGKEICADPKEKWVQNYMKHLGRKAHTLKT
Chain of CCL11_HUMAN (P51671 24-97 limits assumed): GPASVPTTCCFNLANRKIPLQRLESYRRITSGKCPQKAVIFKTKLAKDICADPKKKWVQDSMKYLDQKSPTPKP
Chain of CCL20_HUMAN (P78556 27-96 limits assumed): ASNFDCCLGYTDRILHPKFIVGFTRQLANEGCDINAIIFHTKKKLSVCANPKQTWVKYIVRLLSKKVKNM

B1: P991:G4S:P1156 (designed binder)
chain: ENGEGTTQPDYDNSTDYYNYEDFKCTCPAPHLNNTNGTVMKPIGCYYTCNVTRCTAPDTYPCYNLTEHQAKNLTTSPTTLCAVGNCDHGICVPNGTKELCFKAPNLEEGGGGSADDDNELFTVQYCGMNCTKDEGGTWTGCTGKKEGCKCYHESGKNYGLCLSTEYTDFSQYGNPSDSEIEAAKPKRSDTLSH
Kd (CCL27_HUMAN): 42.6 nM | RT (CCL27_HUMAN): 2.91 min | Kd (CCL23_HUMAN): 5.13 nM | RT (CCL23_HUMAN): 35.2 min | Kd (CCL18_HUMAN): 0.143 nM | RT (CCL18_HUMAN): 293 min | Kd (CCL4_HUMAN): 3.54 nM | RT (CCL4_HUMAN): 28.1 min | Kd (CCL5_HUMAN): 0.947 nM | RT (CCL5_HUMAN): 92 min | Kd (CCL7_HUMAN): 0.287 nM | RT (CCL7_HUMAN): 375 min | Kd (CCL24_HUMAN): 3.18 nM | RT (CCL24_HUMAN): 8.52 min | Kd (CCL3L1_HUMAN): 2.91 nM | RT (CCL3L1_HUMAN): 43.8 min | Kd (CCL4L1_HUMAN): 1.24 nM | RT (CCL4L1_HUMAN): 38.3 min | Kd (CCL13_HUMAN): 0.176 nM | RT (CCL13_HUMAN): 276 min | binding result (CCL20_HUMAN): no binding | Kd (CCL21_HUMAN): 18.2 nM | RT (CCL21_HUMAN): 17.7 min | Kd (CCL22_HUMAN): 2.36 nM | RT (CCL22_HUMAN): 15.6 min | binding result (CCL19_HUMAN): no binding | Kd (CCL14_HUMAN): 0.835 nM | RT (CCL14_HUMAN): 135 min | Kd (CCL1_HUMAN): 7.66 nM | RT (CCL1_HUMAN): 4.13 min | Kd (CCL16_HUMAN): 0.636 nM | RT (CCL16_HUMAN): 72.4 min | Kd (CCL3_HUMAN): 2.22 nM | RT (CCL3_HUMAN): 37.1 min | Kd (CCL8_HUMAN): 7.89 nM | RT (CCL8_HUMAN): 16.6 min | Kd (CCL11_HUMAN): 1.39 nM | RT (CCL11_HUMAN): 30.6 min

B2: P1156:G4S:P991 (designed binder)
chain: ADDDNELFTVQYCGMNCTKDEGGTWTGCTGKKEGCKCYHESGKNYGLCLSTEYTDFSQYGNPSDSEIEAAKPKRSDTLSHGGGGSENGEGTTQPDYDNSTDYYNYEDFKCTCPAPHLNNTNGTVMKPIGCYYTCNVTRCTAPDTYPCYNLTEHQAKNLTTSPTTLCAVGNCDHGICVPNGTKELCFKAPNLEE
notes: also called two-warhead evasin
Kd (CCL27_HUMAN): 36.2 nM | RT (CCL27_HUMAN): 3.4 min | Kd (CCL23_HUMAN): 7 nM | RT (CCL23_HUMAN): 28.5 min | Kd (CCL18_HUMAN): 0.201 nM | RT (CCL18_HUMAN): 182 min | Kd (CCL4_HUMAN): 3.55 nM | RT (CCL4_HUMAN): 26.6 min | Kd (CCL5_HUMAN): 0.754 nM | RT (CCL5_HUMAN): 103 min | Kd (CCL7_HUMAN): 0.435 nM | RT (CCL7_HUMAN): 231 min | Kd (CCL24_HUMAN): 3.58 nM | RT (CCL24_HUMAN): 6.75 min | Kd (CCL3L1_HUMAN): 3.09 nM | RT (CCL3L1_HUMAN): 34.7 min | Kd (CCL4L1_HUMAN): 1.28 nM | RT (CCL4L1_HUMAN): 33.8 min | Kd (CCL13_HUMAN): 0.207 nM | RT (CCL13_HUMAN): 221 min | binding result (CCL20_HUMAN): no binding | Kd (CCL21_HUMAN): 19.9 nM | RT (CCL21_HUMAN): 15.3 min | Kd (CCL22_HUMAN): 2.18 nM | RT (CCL22_HUMAN): 15.8 min | binding result (CCL19_HUMAN): no binding | Kd (CCL14_HUMAN): 0.664 nM | RT (CCL14_HUMAN): 159 min | Kd (CCL1_HUMAN): 16.6 nM | RT (CCL1_HUMAN): 2.01 min | Kd (CCL16_HUMAN): 0.503 nM | RT (CCL16_HUMAN): 92.5 min | Kd (CCL3_HUMAN): 1.89 nM | RT (CCL3_HUMAN): 38.2 min | Kd (CCL8_HUMAN): 7.45 nM | RT (CCL8_HUMAN): 15.3 min | Kd (CCL11_HUMAN): 1.54 nM | RT (CCL11_HUMAN): 24.8 min
